{"source": "patent US6548641", "about": "(MAX PLANCK GESELLSCHAFT ZUR FORDERUNG DER WISSENSCHAFTEN E V, dated 2003)", "binders": {"B1": {"name": "PTP 1C protein tyrosine phosphatase (mouse) (enzyme)", "chain": "not shown", "notes": "Overexpressed transiently in human 293 cells"}}, "molecular_target": "T1, epidermal growth factor receptor (EGF-R) (UniProt P00533 25-1210)", "T1 construct": "also called EGF receptor", "assay": "co-immunoprecipitation with mAb 108.1 from 293 transfectants, immunoblot with anti-PTP antisera", "procedure": "To standardize the experimental parameters, three chimeric RPTKs having EGF-R extracellular domains were tested (HER1-2, EK-R, EP-R) (Seedorf, K. et al., *J. Biol Chem.* 266:12424 (1991)), as was EGF-R itself (FIG. 8).\nThe precipitates were extensively washed, boiled in SDS sample buffer, and analyzed by 7.5% SDS-PAGE.", "data": [{"binder": "B1", "values": [{"measurement": "binding result", "result": "no binding"}]}]}
